In PMC4519966:

Test: Western blot (data not shown)
Details: glycan lost; control: wild-type NOS1AP

expression_or_secretion, no change:
NOS1AP (CAPON): S47A, NOS1AP (CAPON): S183A, NOS1AP (CAPON): S204A, NOS1AP (CAPON): S269A, NOS1AP (CAPON): S271A
